Experimental data as given in IntAct's records for PubMed 22111578.

B1: ADP-ribosylation factor 5 (Mus musculus), P84084 (parent)
chain: MGLTVSALFSRIFGKKQMRILMVGLDAAGKTTILYKLKLGEIVTTIPTIGFNVETVEYKNICFTVWDVGGQDKIRPLWRHYFQNTQGLIFVVDSNDRERVQESADELQKMLQEDELRDAVLLVFANKQDMPNAMPVSELTDKLGLQHLRSRTWYVQATCATQGTGLYDGLDWLSHELSKR
B2: ADP-ribosylation factor 4 (Mus musculus), P61750 (parent)
chain: MGLTISSLFSRLFGKKQMRILMVGLDAAGKTTILYKLKLGEIVTTIPTIGFNVETVEYKNICFTVWDVGGQDKIRPLWRHYFQNTQGLIFVVDSNDRERIQEGAAVLQKMLLEDELQDAVLLLFANKQDLPNAMAISEMTDKLGLQSLRNRTWYVQATCATQGTGLYEGLDWLSNELSKR

Variants of: B1
Details: with caps2_mouse Cadps2, Q8BYR5
Target sequence in this assay (Q8BYR5 whole entry): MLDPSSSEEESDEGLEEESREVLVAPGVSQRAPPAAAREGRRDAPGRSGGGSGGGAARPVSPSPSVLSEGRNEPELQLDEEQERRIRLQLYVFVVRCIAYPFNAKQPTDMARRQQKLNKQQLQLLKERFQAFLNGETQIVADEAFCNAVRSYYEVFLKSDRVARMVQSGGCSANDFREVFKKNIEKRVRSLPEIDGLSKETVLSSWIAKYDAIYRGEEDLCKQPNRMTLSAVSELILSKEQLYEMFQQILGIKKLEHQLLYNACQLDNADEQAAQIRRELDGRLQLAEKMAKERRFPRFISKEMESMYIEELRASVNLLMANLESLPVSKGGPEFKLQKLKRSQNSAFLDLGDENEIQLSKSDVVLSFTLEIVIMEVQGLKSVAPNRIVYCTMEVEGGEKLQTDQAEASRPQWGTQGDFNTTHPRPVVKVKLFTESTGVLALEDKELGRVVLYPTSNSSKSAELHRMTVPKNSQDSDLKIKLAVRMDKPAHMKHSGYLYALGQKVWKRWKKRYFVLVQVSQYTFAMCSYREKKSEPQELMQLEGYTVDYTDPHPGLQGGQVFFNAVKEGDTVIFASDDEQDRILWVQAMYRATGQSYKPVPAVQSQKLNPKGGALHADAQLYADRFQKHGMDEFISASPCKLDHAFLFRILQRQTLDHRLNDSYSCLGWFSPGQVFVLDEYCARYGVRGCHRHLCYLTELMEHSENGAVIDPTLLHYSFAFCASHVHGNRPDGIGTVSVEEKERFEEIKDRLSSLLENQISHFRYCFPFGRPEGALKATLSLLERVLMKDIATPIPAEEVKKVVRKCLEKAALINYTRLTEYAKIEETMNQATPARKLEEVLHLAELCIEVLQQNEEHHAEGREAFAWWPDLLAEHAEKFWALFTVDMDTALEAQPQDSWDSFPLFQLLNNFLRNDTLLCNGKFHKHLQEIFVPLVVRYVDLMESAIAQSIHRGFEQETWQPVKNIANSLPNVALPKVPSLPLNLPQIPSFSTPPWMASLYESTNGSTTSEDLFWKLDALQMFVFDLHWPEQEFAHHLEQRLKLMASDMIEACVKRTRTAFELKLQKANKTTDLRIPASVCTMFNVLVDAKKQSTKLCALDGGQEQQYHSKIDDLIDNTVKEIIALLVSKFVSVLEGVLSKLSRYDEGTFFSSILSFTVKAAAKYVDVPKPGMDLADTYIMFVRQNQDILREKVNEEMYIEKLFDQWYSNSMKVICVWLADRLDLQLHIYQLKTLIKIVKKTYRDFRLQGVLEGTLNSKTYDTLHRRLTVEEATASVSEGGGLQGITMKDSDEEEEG

Variant | effect of a mutation on the interaction
T31N | increasing interaction

Variants of: B1
Details: with caps2_mouse Cadps2, Q8BYR5
Remark: another data set of the same source
Target sequence in this assay (Q8BYR5 whole entry): as above

Variant | effect of a mutation on the interaction
Q71L | disrupting interaction

Variants of: B1
Details: with caps2_mouse Cadps2, Q8BYR5
Remark: another data set of the same source
Target sequence in this assay (Q8BYR5 whole entry): as above

Variant | effect of a mutation on the interaction
S6A | disrupting interaction

Variants of: B2
Details: with caps2_mouse Cadps2, Q8BYR5
Target sequence in this assay (Q8BYR5 whole entry): as above

Variant | effect of a mutation on the interaction
Q71L | disrupting interaction

Variants of: B2
Details: with caps2_mouse Cadps2, Q8BYR5
Remark: another data set of the same source
Target sequence in this assay (Q8BYR5 whole entry): as above

Variant | effect of a mutation on the interaction
T31N | increasing interaction
